Consider three molecules from article PMC10397247.

Assay in all cases: two-hybrid library CCmax;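 further: natural log of median RNA to DNA barcode read ratio; higher means stronger binding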
One experiment deals with T1, 4H446-AA.
T1 chain: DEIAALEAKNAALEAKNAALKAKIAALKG
Particulars: mean of both orientations.

A further experiment concerns the target T2, 4H2903-AA.
T2 chain: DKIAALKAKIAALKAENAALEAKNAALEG
As to conditions: mean of both orientations.

The next experiment deals with T3, 4H3782-AA.
T3 chain: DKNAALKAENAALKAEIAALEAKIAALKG
As to conditions: mean of both orientations.

The target in the next experiment is T4, 4H3049-AA.
T4 chain: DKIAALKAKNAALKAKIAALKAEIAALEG
As to conditions: mean of both orientations.

The target of another experiment is T5, 4H3414-AA.
T5 chain: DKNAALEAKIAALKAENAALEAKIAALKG
As to conditions: mean of both orientations.

Another experiment concerns the target T6, 4H3129-AA.
T6 chain: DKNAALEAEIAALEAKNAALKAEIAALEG
Particulars: mean of both orientations.

The next experiment has as its target T7, 4H483-AA.
T7 chain: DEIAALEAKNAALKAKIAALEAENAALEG
Particulars: mean of both orientations.

The target of the next experiment is T8, 4H2774-AA.
T8 chain: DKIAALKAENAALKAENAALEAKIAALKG
Particulars: mean of both orientations.

The target of a further experiment is T9, 4H464-AA.
T9 chain: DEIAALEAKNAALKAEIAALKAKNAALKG
As to conditions: mean of both orientations.

Another experiment concerns the target T10, 4H3629-AA.
T10 chain: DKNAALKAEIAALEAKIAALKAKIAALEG
As to conditions: mean of both orientations.

The next experiment addresses T11, 4H2961-AA.
T11 chain: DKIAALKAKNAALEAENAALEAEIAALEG
As to conditions: mean of both orientations.

The target of a further experiment is T12, 4H341-AA.
T12 chain: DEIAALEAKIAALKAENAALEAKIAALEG
Particulars: mean of both orientations.

The next experiment concerns the target T13, 4H3969-AA.
T13 chain: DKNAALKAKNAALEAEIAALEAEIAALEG
As to conditions: mean of both orientations.

For the next experiment, the target named is T14, 4H63-AA.
T14 chain: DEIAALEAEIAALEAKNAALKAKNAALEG
Particulars: mean of both orientations.

The target in the next experiment is T15, 4H2728-AA.
T15 chain: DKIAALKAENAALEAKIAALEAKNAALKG

The target of the next experiment is T16, 4H3939-AA.
T16 chain: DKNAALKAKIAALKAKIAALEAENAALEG
As to conditions: mean of both orientations.

For a further experiment, the target named is T17, 4H3595-AA.
T17 chain: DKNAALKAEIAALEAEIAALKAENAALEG
Particulars: mean of both orientations.

For a further experiment, the target named is T18, 4H380-AA.
T18 chain: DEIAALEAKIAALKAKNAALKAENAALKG
As to conditions: mean of both orientations.

The target of a further experiment is T19, APC2237-AA.
T19 chain: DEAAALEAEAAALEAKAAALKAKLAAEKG

For the next experiment, the target named is T20, APC4264-AA.
T20 chain: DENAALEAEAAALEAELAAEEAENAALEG
As to conditions: mean of both orientations.

A further experiment deals with T21, APC6108-AA.
T21 chain: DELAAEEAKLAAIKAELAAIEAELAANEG
Particulars: mean of both orientations.

For another experiment, the target named is T22, APC3645-AA.
T22 chain: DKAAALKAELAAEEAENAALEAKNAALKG
As to conditions: mean of both orientations.

Another experiment concerns the target T23, APC7099-AA.
T23 chain: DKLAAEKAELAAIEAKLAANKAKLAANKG
As to conditions: mean of both orientations.

For the next experiment, the target named is T24, APC4436-AA.
T24 chain: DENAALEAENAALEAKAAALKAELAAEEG
As to conditions: mean of both orientations.

Another experiment has as its target T25, APC8910-AA.
T25 chain: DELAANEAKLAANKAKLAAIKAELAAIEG
As to conditions: mean of both orientations.

The target in a further experiment is T26, APC5383-AA.
T26 chain: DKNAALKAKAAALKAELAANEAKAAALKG
Particulars: mean of both orientations.

In the next experiment the target is T27, APC9319-AA.
T27 chain: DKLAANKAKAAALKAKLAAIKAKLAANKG
As to conditions: mean of both orientations.

The next experiment addresses T28, APC8191-AA.
T28 chain: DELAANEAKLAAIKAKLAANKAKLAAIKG
Particulars: mean of both orientations.

Another experiment concerns the target T29, APC2405-AA.
T29 chain: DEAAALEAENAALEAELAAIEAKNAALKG
As to conditions: mean of both orientations.

The next experiment deals with T30, APC232-AA.
T30 chain: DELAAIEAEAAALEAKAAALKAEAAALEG
As to conditions: mean of both orientations.

For a further experiment, the target named is T31, APC4011-AA.
T31 chain: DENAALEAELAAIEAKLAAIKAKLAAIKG
As to conditions: mean of both orientations.

A further experiment concerns the target T32, APC9096-AA.
T32 chain: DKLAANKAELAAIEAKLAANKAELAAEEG
As to conditions: mean of both orientations.

Another experiment deals with T33, 4H697-AA.
T33 chain: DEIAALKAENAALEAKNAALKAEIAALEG
As to conditions: mean of both orientations.

A further experiment addresses T34, 4H384-AA.
T34 chain: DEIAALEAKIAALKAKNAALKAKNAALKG
As to conditions: mean of both orientations.

The target of another experiment is T35, 4H2553-AA.
T35 chain: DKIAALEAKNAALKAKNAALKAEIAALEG
As to conditions: mean of both orientations.

The next experiment has as its target T36, 4H2620-AA.
T36 chain: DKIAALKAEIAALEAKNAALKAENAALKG
As to conditions: mean of both orientations.

For a further experiment, the target named is T37, 4H3865-AA.
T37 chain: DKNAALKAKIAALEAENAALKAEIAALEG
As to conditions: mean of both orientations.

The target of the next experiment is T38, 4H3718-AA.
T38 chain: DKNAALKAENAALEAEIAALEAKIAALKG
As to conditions: mean of both orientations.

In a further experiment the target is T39, 4H2907-AA.
T39 chain: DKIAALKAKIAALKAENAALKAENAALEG
As to conditions: mean of both orientations.

The next experiment concerns the target T40, 4H32-AA.
T40 chain: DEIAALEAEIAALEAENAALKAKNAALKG
Particulars: mean of both orientations.

Another experiment concerns the target T41, 4H3133-AA.
T41 chain: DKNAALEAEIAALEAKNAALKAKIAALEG
As to conditions: mean of both orientations.

Another experiment addresses T42, 4H2648-AA.
T42 chain: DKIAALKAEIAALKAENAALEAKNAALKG
Particulars: mean of both orientations.

The next experiment addresses T43, 4H3697-AA.
T43 chain: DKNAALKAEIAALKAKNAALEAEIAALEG
As to conditions: mean of both orientations.

The next experiment deals with T44, 4H3413-AA.
T44 chain: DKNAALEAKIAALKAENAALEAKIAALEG
Particulars: mean of both orientations.

The next experiment addresses T45, 4H3588-AA.
T45 chain: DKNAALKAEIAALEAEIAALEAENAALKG
As to conditions: mean of both orientations.

The next experiment concerns the target T46, 4H3606-AA.
T46 chain: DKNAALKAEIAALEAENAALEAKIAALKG
As to conditions: mean of both orientations.

The target of a further experiment is T47, 4H340-AA.
T47 chain: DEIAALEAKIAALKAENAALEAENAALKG
Particulars: mean of both orientations.

The target in another experiment is T48, 4H2611-AA.
T48 chain: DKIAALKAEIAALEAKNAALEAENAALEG
Particulars: mean of both orientations.

The target of another experiment is T49, 4H3056-AA.
T49 chain: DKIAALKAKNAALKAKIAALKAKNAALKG
Particulars: mean of both orientations.

The next experiment has as its target T50, 4H3162-AA.
T50 chain: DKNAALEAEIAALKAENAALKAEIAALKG
Particulars: mean of both orientations.

For the next experiment, the target named is T51, 4H3631-AA.
T51 chain: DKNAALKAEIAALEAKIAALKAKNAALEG
As to conditions: mean of both orientations.

The target in another experiment is T52, 4H982-AA.
T52 chain: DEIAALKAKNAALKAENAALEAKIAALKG
Particulars: mean of both orientations.

The target of the next experiment is T53, 4H2198-AA.
T53 chain: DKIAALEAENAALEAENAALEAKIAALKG

The next experiment has as its target T54, 4H3378-AA.
T54 chain: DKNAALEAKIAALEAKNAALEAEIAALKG

B1: 4H2728-AA (peptide)
chain: DKIAALKAENAALEAKIAALEAKNAALKG
B1: the interaction score with 4H446-AA was -0.989; with 4H2903-AA, -1.25; with 4H3782-AA, -1.28; in the experiment with 4H3049-AA it was 0.953; with 4H3414-AA, -1.03; with 4H3129-AA, 0.939. The interaction score with 4H483-AA is 2.24; with 4H2774-AA it was -1.68; with 4H464-AA it was 0.651; with 4H3629-AA, -0.438; with 4H2961-AA, -1.41; with 4H341-AA, -0.899. In addition, the interaction score in the experiment with 4H3969-AA was -1.14; with 4H63-AA, -0.35; in the experiment with 4H2728-AA it was -0.514; with 4H3939-AA, -1.01; with 4H3595-AA it was -1.57; in the experiment with 4H380-AA, -1.69.

B2: APC2237-AA (peptide)
chain: DEAAALEAEAAALEAKAAALKAKLAAEKG
B2: the interaction score in the experiment with APC2237-AA is -1.33; with APC4264-AA, -1.65; in the experiment with APC6108-AA, -1.71; with APC3645-AA, -1.41; with APC7099-AA it was -1.59; with APC4436-AA, -2.06. The interaction score is -1.72 in the experiment with APC8910-AA; -1.52 with APC5383-AA; -2.27 in the experiment with APC9319-AA; -1.41 in the experiment with APC8191-AA; -1.48 in the experiment with APC2405-AA; -1.19 in the experiment with APC232-AA. The interaction score was 1.54 with APC4011-AA and -1.63 with APC9096-AA.

B3: 4H2198-AA (peptide)
chain: DKIAALEAENAALEAENAALEAKIAALKG
In the case of B3, the interaction score was 1 in the experiment with 4H697-AA; 1.32 with 4H384-AA; 1.96 in the experiment with 4H2553-AA; -0.832 with 4H2620-AA; -0.834 in the experiment with 4H3865-AA; -0.339 in the experiment with 4H3718-AA. Moreover, the interaction score with 4H2907-AA was -0.303; with 4H32-AA, -0.333; in the experiment with 4H3133-AA, -0.581; with 4H2648-AA, -1.34; with 4H3697-AA, -1.16; in the experiment with 4H3413-AA, -0.996. Moreover, the interaction score is -1.24 with 4H3588-AA; -1.01 in the experiment with 4H3606-AA; -1.2 with 4H340-AA; -1.63 with 4H2611-AA; -0.0509 in the experiment with 4H3056-AA; -1.38 with 4H3162-AA. Further, the interaction score with 4H3631-AA is -1.38; with 4H982-AA, 1.67; with 4H2198-AA it was 0.363; in the experiment with 4H3378-AA, -1.47.
